One molecule from doi:10.1101/2023.06.19.545293 (2023) can be followed below.

The target of experiment [1] is T1, ZnF domain of A. thaliana SPL5 (Ser60-Leu127) (A. thaliana, UniProt Q9S758 60-127).
T1 chain: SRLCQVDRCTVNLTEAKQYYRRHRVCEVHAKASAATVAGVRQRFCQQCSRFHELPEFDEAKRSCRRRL
Kind of experiment: ITC; 25 °C, repeat 1.

Experiment [2] deals with T1, ZnF domain of A. thaliana SPL5 …. Put plainly: ITC; 25 °C, repeat 2. In general terms: Isothermal titration calorimetry measures the heat released or taken up as one component is titrated into another.

B1: SAP05 (mature, Ala33-Lys135) of Aster Yellows phytoplasma strain Witches Broom (natural protein)
chain: APNEEFVGDMRIVNVNLSNIDILKKHETFKKYFDFTLTGPRYNGNIAEFAMIWKIKNPPLNLLGVFFDDGTRDDEDDKYILEELKQIGNGAKNMYIFWQYEQK
As usually defined, the Kd is the equilibrium constant for the complex coming apart. For the molecule B1, the results for the Kd in experiment [1] and in experiment [2] were 510 nM and 388 nM, respectively.
